Measured values taken from PMC5503513, “Tandem hnRNP A1 RNA recognition motifs act in concert to repress the splicing of survival motor neuron exon 7”.

Experiments:
hnRNP A1 RRM1 R92A [1] = biological target: T1, hnRNP A1 RRM1 R92A (UniProt P09651 2-97, R92A); experiment: ITC; range, no saturation; ITC: 10 mM NaPi pH 6.5, 10 mM 2-mercaptoethanol, 30 C, protein titrated into RNA; NMR: 10 mM NaPi pH 6.5, 1 mM DTT (303 K stated for UP1-R140A:ISS-N1-u25g); conditions: protein: recombinant; single strand
hnRNP A1 RRM1 R92A [2] = biological target: T1, hnRNP A1 RRM1 R92A; experiment: ITC; 10 mM sodium phosphate pH 6.5, 10 mM 2-mercaptoethanol, no added salt, 30 C; RNA 5-10 uM in the cell; 1:1 fit; conditions: one extra N-terminal Ala in PDB 5MPG (left out)
hnRNP A1 RRM2 R140A [3] = biological target: T2, hnRNP A1 RRM2 R140A (UniProt P09651 95-196, R140A); experiment: as above; conditions: none in PDB 5MPL
hnRNP A1 RRM1 R55A = hnRNP A1 RRM1 R55A (UniProt P09651 2-97, R55A); experiment: as above; conditions: one extra N-terminal Ala in PDB 5MPG (left out)
hnRNP A1 UP1 r1R2 [4] = biological target: hnRNP A1 UP1 r1R2 (Homo sapiens, UniProt P09651 2-196, F17A;F59A); experiment: as above; conditions: extra N-terminal Gly-Gly in PDB 2LYV (left out)
hnRNP A1 RRM1 D42A [5] = biological target: T3, hnRNP A1 RRM1 D42A (UniProt P09651 2-97, D42A); experiment: as above; conditions: one extra N-terminal Ala in PDB 5MPG (left out)
hnRNP A1 UP1 R1r2 [6] = biological target: hnRNP A1 UP1 R1r2 (Homo sapiens, UniProt P09651 2-196, F108A;F150A); experiment: as above; conditions: extra N-terminal Gly-Gly in PDB 2LYV (left out)
hnRNP A1 RRM1 F23A [7] = biological target: T4, hnRNP A1 RRM1 F23A (UniProt P09651 2-97, F23A); experiment: as above; conditions: one extra N-terminal Ala in PDB 5MPG (left out)
UP1 r1R2 [8] = biological target: UP1 r1R2 (UniProt P09651 1-196, F17A;F59A); experiment: ITC; ITC: 10 mM NaPi pH 6.5, 10 mM 2-mercaptoethanol, 30 C, protein titrated into RNA; NMR: 10 mM NaPi pH 6.5, 1 mM DTT (303 K stated for UP1-R140A:ISS-N1-u25g); conditions: protein: recombinant; single strand
hnRNP A1 RRM1 [9] = biological target: T5, hnRNP A1 RRM1 (UniProt P09651 2-97); experiment: as above; conditions: protein: recombinant; single strand
hnRNP A1 RRM2 R140A [10] = biological target: T2, hnRNP A1 RRM2 R140A; experiment: as above; conditions: protein: recombinant; single strand
hnRNP A1 RRM2 E176Q [11] = biological target: T6, hnRNP A1 RRM2 E176Q (UniProt P09651 95-196, E176Q); experiment: as above; conditions: protein: recombinant; single strand
hnRNP A1 RRM2 = hnRNP A1 RRM2 (UniProt P09651 95-196); experiment: as above; conditions: protein: recombinant; single strand
hnRNP A1 RRM1 D42A [12] = biological target: T3, hnRNP A1 RRM1 D42A; experiment: as above; conditions: protein: recombinant; single strand
hnRNP A1 RRM1 F23A [13] = biological target: T4, hnRNP A1 RRM1 F23A; experiment: as above; conditions: protein: recombinant; single strand
UP1 R1r2 [14] = biological target: UP1 R1r2 (UniProt P09651 1-196, F108A;F150A); experiment: as above; conditions: protein: recombinant; single strand
hnRNP A1 RRM1 [15] = biological target: T5, hnRNP A1 RRM1; experiment: ITC; first listed measurement; ITC: 10 mM NaPi pH 6.5, 10 mM 2-mercaptoethanol, 30 C, protein titrated into RNA; NMR: 10 mM NaPi pH 6.5, 1 mM DTT (303 K stated for UP1-R140A:ISS-N1-u25g); conditions: protein: recombinant; single strand
hnRNP A1 RRM1 F23A [16] = biological target: T4, hnRNP A1 RRM1 F23A; experiment: ITC; second listed measurement; ITC: 10 mM NaPi pH 6.5, 10 mM 2-mercaptoethanol, 30 C, protein titrated into RNA; NMR: 10 mM NaPi pH 6.5, 1 mM DTT (303 K stated for UP1-R140A:ISS-N1-u25g); conditions: protein: recombinant; single strand
hnRNP A1 RRM1 [17] = biological target: T5, hnRNP A1 RRM1; experiment: ITC; range, no saturation; ITC: 10 mM NaPi pH 6.5, 10 mM 2-mercaptoethanol, 30 C, protein titrated into RNA; NMR: 10 mM NaPi pH 6.5, 1 mM DTT (303 K stated for UP1-R140A:ISS-N1-u25g); conditions: protein: recombinant; single strand
hnRNP A1 RRM1 D42A [18] = biological target: T3, hnRNP A1 RRM1 D42A; experiment: as above; conditions: protein: recombinant; single strand
hnRNP A1 RRM1 [19] = biological target: T5, hnRNP A1 RRM1; experiment: ITC; 10 mM sodium phosphate pH 6.5, 10 mM 2-mercaptoethanol, no added salt, 30 C; RNA 5-10 uM in the cell; 1:1 fit; conditions: one extra N-terminal Ala in PDB 5MPG (left out)
hnRNP A1 RRM2 E176Q [20] = biological target: T6, hnRNP A1 RRM2 E176Q; experiment: as above; conditions: none in PDB 5MPL
hnRNP A1 RRM2 M186A [21] = biological target: T7, hnRNP A1 RRM2 M186A (UniProt P09651 95-196, M186A); experiment: as above; conditions: none in PDB 5MPL
hnRNP A1 RRM2 M186A [22] = biological target: T7, hnRNP A1 RRM2 M186A; experiment: ITC; ITC: 10 mM NaPi pH 6.5, 10 mM 2-mercaptoethanol, 30 C, protein titrated into RNA; NMR: 10 mM NaPi pH 6.5, 1 mM DTT (303 K stated for UP1-R140A:ISS-N1-u25g); conditions: protein: recombinant; single strand
hnRNP A1 RRM2 Y167F = hnRNP A1 RRM2 Y167F (UniProt P09651 95-196, Y167F); experiment: as above; conditions: protein: recombinant; single strand
Sequence of hnRNP A1 RRM2 Y167F (P09651 95-196 Y167F): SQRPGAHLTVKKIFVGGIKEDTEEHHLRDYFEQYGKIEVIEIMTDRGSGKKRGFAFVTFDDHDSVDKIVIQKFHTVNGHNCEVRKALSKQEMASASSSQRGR

T4 sequence (P09651 2-97 F23A): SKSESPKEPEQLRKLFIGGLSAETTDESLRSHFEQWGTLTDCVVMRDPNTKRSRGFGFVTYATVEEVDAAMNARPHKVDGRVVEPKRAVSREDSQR
T2 sequence (P09651 95-196 R140A): as the sequence (P09651 95-196 Y167F) above, with R46A, F73Y counted along it
T6 sequence (P09651 95-196 E176Q): as the sequence (P09651 95-196 Y167F) above, with F73Y, E82Q counted along it
T1 sequence (P09651 2-97 R92A): as the sequence (P09651 2-97 F23A) above, with A22F, R91A counted along it
T5 sequence (P09651 2-97): as the sequence (P09651 2-97 F23A) above, with A22F counted along it
T3 sequence (P09651 2-97 D42A): as the sequence (P09651 2-97 F23A) above, with A22F, D41A counted along it
T7 sequence (P09651 95-196 M186A): as the sequence (P09651 95-196 Y167F) above, with F73Y, M92A counted along it
Sequence of hnRNP A1 UP1 r1R2 (P09651 2-196 F17A/F59A): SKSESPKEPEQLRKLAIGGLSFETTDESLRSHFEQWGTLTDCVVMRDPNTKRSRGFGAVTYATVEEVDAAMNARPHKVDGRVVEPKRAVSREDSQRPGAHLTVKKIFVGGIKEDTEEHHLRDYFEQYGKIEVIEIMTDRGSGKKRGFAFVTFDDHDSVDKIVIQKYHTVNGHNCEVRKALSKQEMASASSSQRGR
Sequence of hnRNP A1 UP1 R1r2 (P09651 2-196 F108A/F150A): as the sequence (P09651 2-196 F17A/F59A) above, with A16F, A58F, F107A, F149A counted along it
Sequence of hnRNP A1 RRM2 (P09651 95-196): as the sequence (P09651 95-196 Y167F) above, with F73Y counted along it
Sequence of UP1 r1R2 (P09651 1-196 F17A/F59A): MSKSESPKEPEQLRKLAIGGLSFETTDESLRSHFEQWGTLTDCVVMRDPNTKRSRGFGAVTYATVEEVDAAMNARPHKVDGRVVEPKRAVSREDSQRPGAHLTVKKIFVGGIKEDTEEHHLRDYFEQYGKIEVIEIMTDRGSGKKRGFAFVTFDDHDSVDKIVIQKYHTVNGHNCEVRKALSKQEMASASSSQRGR
Sequence of hnRNP A1 RRM1 R55A (P09651 2-97 R55A): as the sequence (P09651 2-97 F23A) above, with A22F, R54A counted along it
Sequence of UP1 R1r2 (P09651 1-196 F108A/F150A): as the sequence (P09651 1-196 F17A/F59A) above, with A17F, A59F, F108A, F150A counted along it

Row | Binder | Kd (hnRNP A1 RRM1 R92A [2]) [nM] | Kd (hnRNP A1 RRM2 R140A [3]) [nM] | Kd (hnRNP A1 UP1 r1R2 [4]) [nM] | Kd (hnRNP A1 RRM1 D42A [5]) [nM] | Kd (hnRNP A1 UP1 R1r2 [6]) [nM] | Kd (UP1 r1R2 [8]) [nM] | Kd (hnRNP A1 RRM2 R140A [10]) [nM] | Kd (hnRNP A1 RRM2 E176Q [11]) [nM] | Kd (hnRNP A1 RRM2) [nM] | also measured
1 | UUAGGUC (ssRNA) | ~2850 | 195 ± 12 | 56.2 ± 4 | 787 ± 42 | 45 ± 2 | 56 ± 4 | 195 ± 12 | 116 ± 39 | 64 ± 8 | Kd (hnRNP A1 RRM1 R92A [1]): ~2240 nM; Kd (hnRNP A1 RRM1 R55A): > 10000 nM; Kd (hnRNP A1 RRM1 F23A [7]): 209 ± 13 nM; Kd (hnRNP A1 RRM1 [9]): 288 ± 16 nM; Kd (hnRNP A1 RRM1 D42A [12]): 787 ± 42 nM; Kd (hnRNP A1 RRM1 F23A [13]): 225 ± 13 nM; Kd (UP1 R1r2 [14]): 47 ± 2 nM; Kd (hnRNP A1 RRM1 [15]): 292 ± 17 nM; Kd (hnRNP A1 RRM1 F23A [16]): 193 ± 11 nM
2 | UUAGUU (ssRNA) | > 10000 | 433 ± 26 | 142 ± 9 | ~2690 | 105 ± 8 | 142 ± 9 | 433 ± 26 | 286 ± 12 | 125 ± 9 | Kd (hnRNP A1 RRM1 [17]): ~5200 nM; Kd (hnRNP A1 RRM1 D42A [18]): ~2240 nM; Kd (hnRNP A1 RRM1 [19]): ~5990 nM; Kd (hnRNP A1 RRM2 E176Q [20]): 286 ± 12 nM; Kd (hnRNP A1 RRM2 M186A [21]): 253 ± 15 nM; Kd (hnRNP A1 RRM2 M186A [22]): 253 ± 15 nM; Kd (hnRNP A1 RRM2 Y167F): 118 ± 9 nM
